Experimental findings from US20170306017A1 (VACCINEX, published 2017) are described below.

Test [1] has as its target T1, human CD100 (human, UniProt Q92854 22-734, limits assumed).
T1 construct: also called huCD100; SEMA4D
T1 sequence: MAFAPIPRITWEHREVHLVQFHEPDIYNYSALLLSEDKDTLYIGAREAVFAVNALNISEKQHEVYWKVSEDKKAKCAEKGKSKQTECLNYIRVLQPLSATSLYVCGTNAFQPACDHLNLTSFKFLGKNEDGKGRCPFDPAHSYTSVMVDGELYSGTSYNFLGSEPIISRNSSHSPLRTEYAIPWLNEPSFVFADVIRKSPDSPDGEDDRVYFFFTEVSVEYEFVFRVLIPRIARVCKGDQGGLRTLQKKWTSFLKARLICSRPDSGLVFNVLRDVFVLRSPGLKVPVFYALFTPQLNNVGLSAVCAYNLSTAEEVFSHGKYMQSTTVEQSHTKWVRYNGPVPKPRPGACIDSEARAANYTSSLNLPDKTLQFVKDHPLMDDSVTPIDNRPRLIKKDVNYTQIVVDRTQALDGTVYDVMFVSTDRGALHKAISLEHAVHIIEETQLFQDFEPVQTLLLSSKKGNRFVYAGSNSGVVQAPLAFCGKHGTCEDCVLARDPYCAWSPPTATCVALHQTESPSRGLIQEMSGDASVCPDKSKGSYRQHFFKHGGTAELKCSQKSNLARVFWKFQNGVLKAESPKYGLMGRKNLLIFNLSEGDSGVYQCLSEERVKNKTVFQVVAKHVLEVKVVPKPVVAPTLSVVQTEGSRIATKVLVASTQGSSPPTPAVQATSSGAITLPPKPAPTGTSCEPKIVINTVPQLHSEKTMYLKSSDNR
Put plainly: BIACORE surface plasmon resonance. A general note: In SPR one partner is held on a chip, and binding of the other changes the refractive index at the surface.

Test [2] addresses T2, mouse CD100 (mouse, UniProt O09126 24-733, limits assumed).
T2 construct: also called murine CD100; muCD100
T2 sequence: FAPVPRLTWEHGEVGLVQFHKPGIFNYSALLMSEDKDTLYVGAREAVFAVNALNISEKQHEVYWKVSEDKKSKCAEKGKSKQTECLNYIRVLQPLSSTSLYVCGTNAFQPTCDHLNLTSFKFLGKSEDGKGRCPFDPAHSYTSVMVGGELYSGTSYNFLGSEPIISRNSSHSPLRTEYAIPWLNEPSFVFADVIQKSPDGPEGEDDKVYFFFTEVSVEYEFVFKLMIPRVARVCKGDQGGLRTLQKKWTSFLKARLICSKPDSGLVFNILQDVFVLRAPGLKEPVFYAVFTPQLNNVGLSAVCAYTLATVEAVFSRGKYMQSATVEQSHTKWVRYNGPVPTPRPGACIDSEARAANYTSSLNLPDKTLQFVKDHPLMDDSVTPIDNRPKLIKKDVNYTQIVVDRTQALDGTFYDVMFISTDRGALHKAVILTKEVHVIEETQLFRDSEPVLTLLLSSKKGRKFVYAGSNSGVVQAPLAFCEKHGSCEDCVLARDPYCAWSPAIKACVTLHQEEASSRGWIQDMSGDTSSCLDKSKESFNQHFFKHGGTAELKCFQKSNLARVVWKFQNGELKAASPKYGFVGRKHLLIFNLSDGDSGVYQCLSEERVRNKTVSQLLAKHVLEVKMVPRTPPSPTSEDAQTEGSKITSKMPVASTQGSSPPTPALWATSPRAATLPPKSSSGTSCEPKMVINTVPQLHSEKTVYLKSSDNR
Put plainly: BIACORE surface plasmon resonance.

Test [3] addresses T1, human CD100. The test can be described thus: BIACORE surface plasmon resonance. As to the method: (§1) Binding affinities of anti-CD100 MAbs were determined using BIACORE® surface plasmon resonance technology.
This is another data set of the same source.

In test [4] the target is T2, mouse CD100. The test can be described thus: BIACORE surface plasmon resonance. As to the method:
as §1
This is another data set of the same source.

Test [5] concerns the target T3, marmoset CD100 (marmoset, UniProt A0A8I3W811 22-734).
T3 construct: also called marmCD100; monkey CD100
T3 sequence: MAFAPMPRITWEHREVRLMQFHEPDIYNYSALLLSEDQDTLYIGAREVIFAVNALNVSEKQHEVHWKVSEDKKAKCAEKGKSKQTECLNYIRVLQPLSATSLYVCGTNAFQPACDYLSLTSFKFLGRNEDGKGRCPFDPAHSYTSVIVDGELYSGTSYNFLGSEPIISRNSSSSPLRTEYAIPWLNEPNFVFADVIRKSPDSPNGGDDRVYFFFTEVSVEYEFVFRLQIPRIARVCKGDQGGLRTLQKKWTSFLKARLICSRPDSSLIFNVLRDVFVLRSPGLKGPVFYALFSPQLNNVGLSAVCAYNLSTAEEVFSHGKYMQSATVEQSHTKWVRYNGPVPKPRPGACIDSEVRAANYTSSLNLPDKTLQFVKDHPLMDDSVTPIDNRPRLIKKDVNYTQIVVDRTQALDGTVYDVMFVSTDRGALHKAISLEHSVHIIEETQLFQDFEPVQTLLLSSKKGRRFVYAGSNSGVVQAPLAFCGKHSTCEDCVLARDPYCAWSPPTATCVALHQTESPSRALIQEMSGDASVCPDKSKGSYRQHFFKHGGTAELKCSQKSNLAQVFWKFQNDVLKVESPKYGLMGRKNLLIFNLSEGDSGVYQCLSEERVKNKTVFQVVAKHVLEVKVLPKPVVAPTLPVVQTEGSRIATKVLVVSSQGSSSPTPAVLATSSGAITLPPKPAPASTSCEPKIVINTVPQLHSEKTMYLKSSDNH
Put plainly: BIACORE surface plasmon resonance. The protocol:
as §1

The target of test [6] is T4, human CD100-Fc (human, UniProt Q92854 22-734, limits assumed).
T4 sequence: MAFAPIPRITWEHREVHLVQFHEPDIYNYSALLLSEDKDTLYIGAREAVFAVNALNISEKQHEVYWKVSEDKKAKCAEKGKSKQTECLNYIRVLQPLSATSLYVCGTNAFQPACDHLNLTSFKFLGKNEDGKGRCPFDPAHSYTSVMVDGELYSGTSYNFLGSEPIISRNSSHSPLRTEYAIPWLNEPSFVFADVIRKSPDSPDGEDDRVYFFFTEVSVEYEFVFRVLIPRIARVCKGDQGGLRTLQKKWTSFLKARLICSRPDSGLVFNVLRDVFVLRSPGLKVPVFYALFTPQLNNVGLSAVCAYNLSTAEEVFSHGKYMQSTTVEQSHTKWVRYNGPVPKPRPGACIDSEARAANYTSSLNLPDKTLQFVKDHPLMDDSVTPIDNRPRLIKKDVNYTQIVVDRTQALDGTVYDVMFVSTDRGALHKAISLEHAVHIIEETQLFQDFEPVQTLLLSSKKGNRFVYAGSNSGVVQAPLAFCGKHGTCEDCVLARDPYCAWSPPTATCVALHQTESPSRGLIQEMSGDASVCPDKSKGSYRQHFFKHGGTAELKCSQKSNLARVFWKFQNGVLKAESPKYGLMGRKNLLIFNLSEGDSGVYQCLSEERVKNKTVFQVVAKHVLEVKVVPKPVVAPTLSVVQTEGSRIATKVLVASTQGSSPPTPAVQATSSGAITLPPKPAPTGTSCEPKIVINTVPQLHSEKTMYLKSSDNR
Put plainly: competition ELISA on plate-coated human CD100-Fc; unlabelled antibody titrated first, competitor biotinylated MAb 67 detected with streptavidin-HRP. As to the method:
For the ELISA protocol, an ELISA plate was coated with CD100-Fc. […] The antibodies were allowed to bind to CD100 and unbound antibody was wash away. Biotinylated MAb 67 was added. Biotinylated MAb 67 bound to CD100 was detected using Streptavidin-HRP.

As usually defined, the Kd is the equilibrium constant for the complex coming apart. Low readings indicate a tighter complex, high ones a looser complex.

Read-outs that look alike come from different tables or passages of the source.

B1: MAb 76 (antibody, IgG2b, V domains shown)
VH: QVQLQQSGAELAKPGASVKMSCKASGYTFTRYWMHWVKQRPGQGLEWIGYINPSTGYSDYNQKFKDKATLTADKSSSTAYMQLSSLTSEDSAVYYCARDPYGWTMDSWGQGTLVTVSS
VL: DIQMTQSPSSLSASLGDTITITCHASQNINVWLSWYQQKPGNIPKLLIYKASNLHTGVPSRFSGSGSGTGFTLTISSLQPEDIATYYCQQGQSYPYTFGGGTKLEIK
notes: also called clone 76-1; 76-1
As for B1, the Kd in test [1] amounted to 0.12 nM; in test [2], 0.33 nM.

B2: MAb 2503 (antibody, V domains shown)
VH: QVQLVQSGAEVKKPGSSVKVSCKASGYSFSDYYMHWVRQAPGQGLEWMGQINPTTGGASYNQKFKGKATITVDKSTSTAYMELSSLRSEDTAVYYCARYYYGRHFDVWGQGTTVTVSS
VL: DIVMTQSPDSLAVSLGERATINCKASQSVDYDGDSYMNWYQQKPGQPPKLLIYAASNLESGVPDRFSGSGSGTDFTLTISSLQAEDVAVYYCQQSNEDPYTFGQGTKLEIK
notes: also called humanized MAb 67; H2160/L553
B2: the results for the equilibrium dissociation constant (Kd) in test [3], in test [4] and in test [5] were 5.4 nM, 1.5 nM and 2.4 nM, respectively. Moreover, the “IC50 (read off the curve)” value in test [6] was roughly 0.2 nM.

B3: MAb 67 (antibody, IgG1, V domains shown)
VH: QVQLQQSGPELVKPGASVKISCKASGYSFSDYYMHWVKQSPENSLEWIGQINPTTGGASYNQKFKGKATLTVDKSSSTAYMQLKSLTSEESAVYYCTRYYYGRHFDVWGQGTTVTVSS
VL: DIVMTQSPASLAVSLGQRATISCKASQSVDYDGDSYMNWYQQKPGQPPKLLIYAASNLESGIPARFSGSGSGTDFTLNIHPVEEEDAATYYCQQSNEDPYTFGGGTKLEIK
notes: also called mouse MAb 67; murine MAb 67
In turn, B3 displayed a Kd in test [5] of 2.7 nM. This lies in the single-digit nanomolar range.
